We go through one molecule from US20220154204A1 (University of California, published 2022).

This test deals with T1, nYFP-GEF1 (UniProt Q93ZY2 1-548).
T1 construct: BiFC positive control partner; also called RopGEF1; not shown: N-terminal YFP fragment (nYFP) from BiFC vector pSPYNE173
T1 sequence (looked up): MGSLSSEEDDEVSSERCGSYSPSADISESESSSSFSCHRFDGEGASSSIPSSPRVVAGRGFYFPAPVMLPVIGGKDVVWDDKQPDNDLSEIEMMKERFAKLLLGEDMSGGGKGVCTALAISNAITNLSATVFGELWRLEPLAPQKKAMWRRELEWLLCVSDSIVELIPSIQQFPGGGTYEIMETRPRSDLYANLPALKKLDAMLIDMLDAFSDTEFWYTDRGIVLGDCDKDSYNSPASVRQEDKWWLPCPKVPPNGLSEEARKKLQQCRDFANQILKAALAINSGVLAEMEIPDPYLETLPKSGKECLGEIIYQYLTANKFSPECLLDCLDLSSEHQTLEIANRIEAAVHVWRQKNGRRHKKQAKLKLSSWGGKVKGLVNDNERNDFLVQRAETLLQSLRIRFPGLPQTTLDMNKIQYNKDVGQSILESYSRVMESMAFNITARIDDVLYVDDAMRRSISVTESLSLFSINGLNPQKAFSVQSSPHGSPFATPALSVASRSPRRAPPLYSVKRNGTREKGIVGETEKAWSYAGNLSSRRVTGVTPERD
Nature of the test: BiFC in Nicotiana benthamiana leaves, positive control. Here is the method:
a, Co-immunoprecipitation experiments using transiently expressed M3Kδ6 and OST1/SnRK2.6 in Arabidopsis mesophyll cell protoplasts. OST1/SnRK2.6-GFP or GFP control co-expressed with M3Kδ6-FLAG were immunoprecipitated with GFP antibodies. Precipitated proteins were analyzed by immunoblots using GFP or FLAG antibody. b and c, BiFC analyses of nYFP-M3Kδ6 (b) or nYFP-M3Kδ7 (c) with OST1/SnRK2.6-cYFP, SnRK2.2-cYFP, 2.4-cYFP and 2.10-cYFP infiltrated in 6-week-old Nicotiana benthamiana leaves. nYFP-GEF1/cYFP-ABI1 combination was used as a positive control. All images are at the same scale. Scale bars=50 μm. d and e, BiFC quantifications measured from maximal projections of z-stacks and normalized over an infiltration control expressing p19 only. BiFC quantifications were analyzed by one-way ANOVA followed by Tukey's tests. Confocal images were acquired using identical settings for each BiFC experiment. Means±s.e.m. (n=45).

B1: cYFP-ABI1 (enzyme, UniProt P49597 1-434, looked up)
chain: MEEVSPAIAGPFRPFSETQMDFTGIRLGKGYCNNQYSNQDSENGDLMVSLPETSSCSVSGSHGSESRKVLISRINSPNLNMKESAAADIVVVDISAGDEINGSDITSEKKMISRTESRSLFEFKSVPLYGFTSICGRRPEMEDAVSTIPRFLQSSSGSMLDGRFDPQSAAHFFGVYDGHGGSQVANYCRERMHLALAEEIAKEKPMLCDGDTWLEKWKKALFNSFLRVDSEIESVAPETVGSTSVVAVVFPSHIFVANCGDSRAVLCRGKTALPLSVDHKPDREDEAARIEAAGGKVIQWNGARVFGVLAMSRSIGDRYLKPSIIPDPEVTAVKRVKEDDCLILASDGVWDVMTDEEACEMARKRILLWHKKNAVAGDASLLADERRKEGKDPAAMSAAEYLSKLAIQRGSKDNISVVVVDLKPRRKLKSKPLN
notes: BiFC positive control partner; order of tag and protein as the printed name gives it; not shown: C-terminal YFP fragment (cYFP) from BiFC vector pSPYCE(M)
Regarding B1, the binding result was “binds”.
